For assay [1], the target named is T1, D2/3-HFc fusion protein (mouse, UniProt P21803 22-262; P01868 98-324 = IgG part, limits assumed).
T1 construct: domain: Ig-like effector domains D2 and D3;domain: hinge, CH2 and CH3 domains; Secreted by NIH 3T3 transfectants as a disulfide-linked dimer (80 kd reduced, 160 kd nonreduced); Cloned into HFc-pUC 18 without the heterologous signal peptide; also called KGFR-HFc (D2/3)
Put plainly: 50% displacement of 125I-aFGF by unlabeled aFGF, fusion protein captured on Gamma Bind G (Scatchard analysis). As to the method: (§1) Ey et al., Immunochem. 15: 429 (1978). […] Bovine brain aFGF was obtained from Upstate Biotechnology, Inc. (Lake Placid, N.Y.). ^125I-aFGF was prepared as described by Friesel et al., J. Biol. Chem. 261: 7581 (1986).
(§2) Bound ligand recovered from the pellets was counted in a Beckman gamma counter. Specific binding was defined as the difference between binding in the absence or presence of excess unlabeled ligand.
For orientation: Loss of bound radioactivity is the signal in a displacement assay; it reports binding, not function.

Another assay deals with T2, D2-HFc fusion protein (mouse, UniProt P21803 22-156; P01868 98-324 = IgG part, limits assumed).
T2 construct: domain: Ig-like effector domain D2;domain: hinge, CH2 and CH3 domains; Disulfide-linked dimer (55 kd reduced, 110 kd nonreduced); also called KGFR-HFc (D2)
The description is as above. The procedure:
as §1, §2

The next assay concerns the target T3, α PDGFR (UniProt P16234 24-1089, limits assumed).
T3 construct: also called α PDGF receptor
Put plainly: Scatchard analysis.

The target in the next assay is T4, β PDGFR (UniProt P09619 33-1106, limits assumed).
T4 construct: also called β PDGF receptor
T4 sequence (P09619 33-1106 limits assumed): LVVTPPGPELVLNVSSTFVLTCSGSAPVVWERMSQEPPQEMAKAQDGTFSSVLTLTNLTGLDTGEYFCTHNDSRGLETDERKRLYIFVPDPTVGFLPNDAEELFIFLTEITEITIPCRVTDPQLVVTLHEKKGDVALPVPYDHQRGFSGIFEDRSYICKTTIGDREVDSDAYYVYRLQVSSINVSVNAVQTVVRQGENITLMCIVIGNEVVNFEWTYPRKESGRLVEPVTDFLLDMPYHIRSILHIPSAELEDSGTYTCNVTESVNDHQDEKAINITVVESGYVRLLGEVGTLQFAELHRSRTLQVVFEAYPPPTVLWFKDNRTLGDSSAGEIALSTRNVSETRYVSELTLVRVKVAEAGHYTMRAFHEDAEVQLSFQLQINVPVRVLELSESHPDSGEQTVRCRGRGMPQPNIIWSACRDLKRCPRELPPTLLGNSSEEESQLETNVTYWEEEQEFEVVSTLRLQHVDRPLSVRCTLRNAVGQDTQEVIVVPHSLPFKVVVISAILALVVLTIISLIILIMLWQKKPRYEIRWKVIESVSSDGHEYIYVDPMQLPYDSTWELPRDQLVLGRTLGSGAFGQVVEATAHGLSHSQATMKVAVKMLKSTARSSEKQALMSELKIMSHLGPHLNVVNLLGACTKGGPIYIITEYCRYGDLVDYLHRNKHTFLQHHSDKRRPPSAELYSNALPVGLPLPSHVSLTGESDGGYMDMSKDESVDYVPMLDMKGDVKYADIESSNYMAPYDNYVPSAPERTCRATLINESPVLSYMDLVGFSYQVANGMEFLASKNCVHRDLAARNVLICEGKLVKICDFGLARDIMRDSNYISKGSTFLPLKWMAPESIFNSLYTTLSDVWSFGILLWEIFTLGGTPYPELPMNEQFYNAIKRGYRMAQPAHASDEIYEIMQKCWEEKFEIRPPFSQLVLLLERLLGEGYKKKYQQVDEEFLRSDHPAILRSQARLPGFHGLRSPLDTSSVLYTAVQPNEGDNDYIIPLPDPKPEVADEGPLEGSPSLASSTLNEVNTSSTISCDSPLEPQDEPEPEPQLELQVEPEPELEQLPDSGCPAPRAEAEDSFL
Put plainly: Scatchard analysis.

Assay [2] deals with T5, immunoglobulin HFc (mouse, UniProt P01868 98-324 = IgG part).
T5 construct: domain: hinge, CH2 and CH3 domains; Control without a nonantibody portion; also called the HFc portion of IgG; control immunoglobulin HFc
Put plainly: ELISA-like assay, 10 ng PDGF BB immobilized. As to the method: After a two hour incubation, wells were washed, and alkaline phosphatase substrate was added to the wells in 100 mM sodium bicarbonate (pH 9.8)-1 mM magnesium chloride. After another incubation, the presence of the product of the chromogenic substrate was measured at 405 nm using an ELISA reader.
(ELISA stands for enzyme-linked immunosorbent assay.)

Assay [3] concerns the target T5, immunoglobulin HFc. The assay can be described thus: immunohistochemistry on normal human skin.
In assay [4] the target is T1, D2/3-HFc fusion protein. The assay can be described thus: 50% displacement of 125I-KGF by unlabeled KGF, fusion protein captured on Gamma Bind G (Scatchard analysis). As to the method:
as §1, §2
The dissociation constant for each fusion protein was determined by measuring the concentrations of unlabeled ligand required for 50% displacement of radiolabeled ligand.

Assay [5] concerns the target S. aureus protein A Sepharose CL-4B (S. aureus, UniProt P38507 37-477). Put plainly: precipitation of 35S-labeled conditioned medium. As to the method:
Cells were incubated in the presence of radiolabeled amino acids to examine the expression of the fusion proteins. […] The immunoprecipitated proteins were then analyzed by SDS-polyacrylamide gel electrophoresis (PAGE) and immunoprecipitated species were visualized after fluorography.
Isolated proteins were analyzed using SDS-PAGE.

As a reminder, the Kd is the free concentration of one partner at which half of the binding sites on the other are occupied at equilibrium, for simple one-to-one binding. A higher Kd goes with lower affinity.

T3 sequence (P16234 24-1089 limits assumed): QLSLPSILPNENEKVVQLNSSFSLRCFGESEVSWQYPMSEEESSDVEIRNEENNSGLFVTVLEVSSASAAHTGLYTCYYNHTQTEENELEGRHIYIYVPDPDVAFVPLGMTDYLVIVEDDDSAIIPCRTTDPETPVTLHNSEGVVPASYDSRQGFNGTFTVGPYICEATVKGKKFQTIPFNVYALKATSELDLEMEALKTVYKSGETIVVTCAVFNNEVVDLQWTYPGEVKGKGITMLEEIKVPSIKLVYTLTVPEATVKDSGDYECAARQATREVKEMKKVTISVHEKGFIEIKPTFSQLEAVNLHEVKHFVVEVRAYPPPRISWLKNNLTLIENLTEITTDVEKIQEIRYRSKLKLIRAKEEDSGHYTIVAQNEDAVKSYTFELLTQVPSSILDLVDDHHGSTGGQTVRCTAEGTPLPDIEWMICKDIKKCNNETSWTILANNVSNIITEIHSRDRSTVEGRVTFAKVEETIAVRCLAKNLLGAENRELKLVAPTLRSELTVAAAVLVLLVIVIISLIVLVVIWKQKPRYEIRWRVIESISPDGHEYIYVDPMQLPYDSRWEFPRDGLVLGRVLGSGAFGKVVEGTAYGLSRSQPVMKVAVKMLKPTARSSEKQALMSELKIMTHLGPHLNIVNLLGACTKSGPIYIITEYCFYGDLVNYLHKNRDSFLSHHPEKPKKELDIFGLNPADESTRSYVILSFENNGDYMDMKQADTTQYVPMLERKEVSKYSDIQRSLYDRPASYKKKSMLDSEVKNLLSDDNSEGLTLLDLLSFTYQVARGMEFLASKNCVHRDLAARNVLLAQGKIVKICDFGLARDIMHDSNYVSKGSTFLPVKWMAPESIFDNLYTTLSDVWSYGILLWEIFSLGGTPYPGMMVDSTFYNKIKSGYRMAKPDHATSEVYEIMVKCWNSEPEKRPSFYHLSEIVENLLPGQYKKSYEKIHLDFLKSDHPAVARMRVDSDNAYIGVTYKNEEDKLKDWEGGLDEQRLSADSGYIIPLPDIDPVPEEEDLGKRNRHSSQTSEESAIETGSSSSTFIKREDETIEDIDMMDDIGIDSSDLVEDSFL

B1: bovine brain aFGF (ligand, UniProt P03968 16-155, looked up)
chain: FNLPLGNYKKPKLLYCSNGGYFLRILPDGTVDGTKDRSDQHIQLQLCAESIGEVYIKSTETGQFLAMDTDGLLYGSQTPNEECLFLERLEENHYNTYISKKHAEKHWFVGLKKNGRSKLGPRTHFGQKAILFLPLPVSSD
notes: also called radioiodinated bovine fibroblast growth factor (aFGF); 125I-aFGF
Regarding B1, the Kd with D2/3-HFc fusion protein [1] came out at 0.52 nM; with D2-HFc fusion protein it was 0.96 nM.

B2: PDGF B-HFc fusion protein (Fc fusion, UniProt P01127 82-190, looked up)
chain: SLGSLTIAEPAMIAECKTRTEVFEISRRLIDRTNANFLVWPPCVEVQRCSGCCNNRNVQCRPTQVQLRPVQVRKIEIVRKKPIFKKATVTLEDHLACKCETVAAARPVTVPRDCGCKPCICTVPEVSSVFIFPPKPKDVLTITLTPKVTCVVVDISKDDPEVQFSWFVDDVEVHTAQTQPREEQFNSTFRSVSELPIMHQDWLNGKEFKCRVNSAAFPAPIEKTISKTKGRPKAPQVYTIPPPKEQMAKDKVSLTCMITDFFPEDITVEWQWNGQPAENYKNTQPIMNTNGSYFVYSKLNVQKSNWEAGNTFTCSVLHEGLHNHHTEKSLSHSPGK
notes: Expressed as an 84 kd dimeric protein
For the molecule B2, the results for the Kd in the assay with α PDGFR and with β PDGFR were 3.2 nM and 1.4 nM, respectively.

B3: PDGF BB (ligand, UniProt P01127 82-190, looked up)
chain: SLGSLTIAEPAMIAECKTRTEVFEISRRLIDRTNANFLVWPPCVEVQRCSGCCNNRNVQCRPTQVQLRPVQVRKIEIVRKKPIFKKATVTLEDHLACKCETVAAARPVT
notes: also called PDGF BB protein
With B3, the binding result in the assay with immunoglobulin HFc [2] is “no binding”.

B4: keratinocyte growth factor (KGF) (ligand, human, UniProt P21781 32-194, looked up)
chain: CNDMTPEQMATNVNCSSPERHTRSYDYMEGGDIRVRRLFCRTQWYLRIDKRGKVKGTQEMKNNYNIMEIRTVAVGIVAIKGVESEFYLAMNKEGKLYAKKECNEDCNFKELILENHYNTYASAKWTHNGGEMFVALNQKGIPVRGKKTKKEQKTAHFLPMAIT
notes: also called recombinant human KGF; recombinant KGF
For B4, the binding result with immunoglobulin HFc [3] is recorded as “no binding”. The molecule further gave a Kd with D2/3-HFc fusion protein [4] of 0.12 nM.

B5: KGF-HFc fusion protein (Fc fusion, UniProt P21781 32-194, looked up)
chain: CNDMTPEQMATNVNCSSPERHTRSYDYMEGGDIRVRRLFCRTQWYLRIDKRGKVKGTQEMKNNYNIMEIRTVAVGIVAIKGVESEFYLAMNKEGKLYAKKECNEDCNFKELILENHYNTYASAKWTHNGGEMFVALNQKGIPVRGKKTKKEQKTAHFLPMAITVPRDCGCKPCICTVPEVSSVFIFPPKPKDVLTITLTPKVTCVVVDISKDDPEVQFSWFVDDVEVHTAQTQPREEQFNSTFRSVSELPIMHQDWLNGKEFKCRVNSAAFPAPIEKTISKTKGRPKAPQVYTIPPPKEQMAKDKVSLTCMITDFFPEDITVEWQWNGQPAENYKNTQPIMNTNGSYFVYSKLNVQKSNWEAGNTFTCSVLHEGLHNHHTEKSLSHSPGK
notes: Disulfide-linked dimer, p94-98 nonreduced, 48 kd reduced
For the molecule B5, in assay [5], the binding result is on record as “binds”.

B6: PDGF A-HFc fusion protein (Fc fusion)
chain: not shown
notes: Expressed as an 84-89 kd dimeric protein
Molecule B6 came in with a dissociation constant (Kd) with α PDGFR of 1.3 nM. In addition, the binding result in the assay with β PDGFR is “no binding”.

(Values after patent US6403769 (US Dept. of Health and Human Services, dated 2002).)
